Measured values as given in patent US20030026781A1, “Compositions and methods for regulating endogenous inhibitor of ATP synthase, including treatment for diabetes” (MitoKor, priority 1999, published 2003).

Target: mitochondrial ATP synthase (ETC Complex V) ATPase in rat liver submitochondrial particles (SMP) (rat) (UniProt P15999)
Test: cell-based or functional assay

- IC50 at pH 6.5, inhibition of oligomycin-sensitive ATPase in rat liver SMP: 0.19 µM
- IC50 at pH 7.25, inhibition of oligomycin-sensitive ATPase in rat liver SMP: 0.42 µM
- IC50 at pH 8, inhibition of oligomycin-sensitive ATPase in rat liver SMP: > 0.8 µM
Substance: rat IF1 (from UniProt Q03344 26-107)
